Measured values reported in PMC7022630 (Biomolecules, 2020).

Target: the molecule itself
Assay: SEC-MALS; Superdex 200 10/300 GL; 20 mM Tris-HCl pH 7.5, 150 mM sodium chloride, 0.5 mM TCEP; 100 μL of monomer and dimer fractions of NDRG3 ΔNC at 2.0 mg/mL injected separately, 0.4 mL/min

B1: truncated human NDRG3 (residues 29–320, NDRG3 ΔNC) (domain or fragment)
chain: not shown
notes: N-Myc downstream-regulated gene 3 protein (NDRG3), human, 375 amino acids, residues 29-320; Elutes as monomer and dimer fractions; mainly monomer; No removal of the His tag is described; also called NDRG3 ΔNC WT; NDRG3 ΔNC wild type; source: E. coli BLR(DE3), purified (Ni-chelating, Q HP, Superdex 200); for the analytical SEC loaded after the Ni-chelating column
stoichiometry N: 2
